Laboratory results: the supplement of paper PMC10724198
± gives the standard deviation of the averaged measurements.

Experiments:
[1] = system: Saccharomyces cerevisiae; assay: protein stability index of tFT-peptide fusion (C-terminal peptide) (PSI (0-1 scale)); higher = more stable (slower turnover); details: genetic background: wild type; temperature: 30 C
[2] = system: Saccharomyces cerevisiae; assay: as above
Procedure: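 MPS profiling in S. cerevisiae of the tFT-X12 degron library: putative degron peptides plus stable controls, 12 aa, fused to the C-terminus of a sfGFP-mCherry timer. Cells are FACS-sorted into 8 mCherry/sfGFP bins and deep-sequenced. PSI runs from 0 (unstable) to 1 (stable). Backgrounds are wild type, das1Δ and doa10Δ at 30 °C, and wild type, das1Δ, cdc34-1 and cdc53-1 at 37 °C; 2-3 technical replicates each.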

[3] = genetic background: cdc34-1, temperature: 37 C
[4] = genetic background: cdc53-1, temperature: 37 C
[5] = genetic background: das1 deletion, temperature: 30 C
[6] = genetic background: das1 deletion, temperature: 37 C
[7] = genetic background: doa10 deletion, temperature: 30 C
[8] = genetic background: wild type, temperature: 30 C
[9] = genetic background: wild type, temperature: 37 C
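Note: PSI is a weighted mean of sequencing reads over stability bins, variants kept only with over 10 reads, mCherry proximal and sfGFP distal, peptide attached via GGGS linker.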

## ILFWSLLVSTIR
[1]
  protein stability index: 0.177 ± 0.082
[2]; [3]
  protein stability index: 0.13 ± 0.031
[2]; [4]
  protein stability index: 0.223 ± 0.056
[2]; [5]
  protein stability index: 0.174 ± 0.034
[2]; [6]
  protein stability index: 0.263 ± 0.0027
[2]; [7]
  protein stability index: 0.137 ± 0.017
[2]; [8]
  protein stability index: 0.149 ± 0.035
[2]; [9]
  protein stability index: 0.266 ± 0.004

## LLVRYRRALVLL
[1]
  protein stability index: 0.142 ± 0.051
[2]; [3]
  protein stability index: 0.338 ± 0.0093
[2]; [4]
  protein stability index: 0.412 ± 0.018
[2]; [5]
  protein stability index: 0.425 ± 0.025
[2]; [6]
  protein stability index: 0.53 ± 0.023
[2]; [7]
  protein stability index: 0.0924 ± 0.015
[2]; [8]
  protein stability index: 0.0953 ± 0.036
[2]; [9]
  protein stability index: 0.131 ± 0.033

## FELSVSVFQSVV
[1]
  protein stability index: 0.338 ± 0.031
[2]; [3]
  protein stability index: 0.318 ± 0.048
[2]; [4]
  protein stability index: 0.388 ± 0.0039
[2]; [5]
  protein stability index: 0.374 ± 0.023
[2]; [6]
  protein stability index: 0.3368 ± 0.002
[2]; [7]
  protein stability index: 0.409 ± 0.048
[2]; [8]
  protein stability index: 0.384 ± 0.044
[2]; [9]
  protein stability index: 0.318 ± 0.0051

## KGSKGELGVHVG
[1]
  protein stability index: 0.671 ± 0.34
[2]; [3]
  protein stability index: 0.686 ± 0.03
[2]; [4]
  protein stability index: 0.712 ± 0.013
[2]; [5]
  protein stability index: 0.63 ± 0.016
[2]; [6]
  protein stability index: 0.728 ± 0.0034
[2]; [7]
  protein stability index: 0.628 ± 0.023
[2]; [8]
  protein stability index: 0.634 ± 0.021
[2]; [9]
  protein stability index: 0.6889 ± 0.0015

## VMLFYVGSGVVS
[1]
  protein stability index: 0.485 ± 0.11
[2]; [3]
  protein stability index: 0.654 ± 0.053
[2]; [4]
  protein stability index: 0.688 ± 0.038
[2]; [5]
  protein stability index: 0.54 ± 0.032
[2]; [6]
  protein stability index: 0.685 ± 0.016
[2]; [7]
  protein stability index: 0.545 ± 0.023
[2]; [8]
  protein stability index: 0.556 ± 0.02
[2]; [9]
  protein stability index: 0.671 ± 0.014

## VCVAVCFVMCGG
[1]
  protein stability index: 0.3721 ± 0.0011
[2]; [3]
  protein stability index: 0.36 ± 0.022
[2]; [4]
  protein stability index: 0.457 ± 0.023
[2]; [5]
  protein stability index: 0.324 ± 0.023
[2]; [6]
  protein stability index: 0.499 ± 0.018
[2]; [7]
  protein stability index: 0.276 ± 0.0083
[2]; [8]
  protein stability index: 0.305 ± 0.0087
[2]; [9]
  protein stability index: 0.464 ± 0.03

## PPSRSPLPPLLH
[1]
  protein stability index: 0.723 ± 0.027
[2]; [3]
  protein stability index: 0.657 ± 0.04
[2]; [4]
  protein stability index: 0.729 ± 0.024
[2]; [5]
  protein stability index: 0.687 ± 0.041
[2]; [6]
  protein stability index: 0.707 ± 0.017
[2]; [7]
  protein stability index: 0.6917 ± 0.0047
[2]; [8]
  protein stability index: 0.686 ± 0.027
[2]; [9]
  protein stability index: 0.694 ± 0.031

## KNVFLIRGRKNC
[1]
  protein stability index: 0.356 ± 0.098
[2]; [3]
  protein stability index: 0.627 ± 0.054
[2]; [4]
  protein stability index: 0.689 ± 0.0093
[2]; [5]
  protein stability index: 0.638 ± 0.029
[2]; [6]
  protein stability index: 0.721 ± 0.018
[2]; [7]
  protein stability index: 0.154 ± 0.021
[2]; [8]
  protein stability index: 0.193 ± 0.014
[2]; [9]
  protein stability index: 0.41 ± 0.017

## SFFCFFLSFFYL
[1]
  protein stability index: 0.502 ± 0.015
[2]; [3]
  protein stability index: 0.571 ± 0.027
[2]; [4]
  protein stability index: 0.53 ± 0.0091
[2]; [5]
  protein stability index: 0.471 ± 0.011
[2]; [6]
  protein stability index: 0.562 ± 0.018
[2]; [7]
  protein stability index: 0.475 ± 0.025
[2]; [8]
  protein stability index: 0.445 ± 0.013
[2]; [9]
  protein stability index: 0.539 ± 0.02

## AWPGRLWYFWLA
[1]
  protein stability index: 0.251 ± 0.14
[2]; [3]
  protein stability index: 0.655 ± 0.028
[2]; [4]
  protein stability index: 0.7846 ± 0.0056
[2]; [5]
  protein stability index: 0.637 ± 0.018
[2]; [6]
  protein stability index: 0.755 ± 0.011
[2]; [7]
  protein stability index: 0.189 ± 0.0052
[2]; [8]
  protein stability index: 0.215 ± 0.025
[2]; [9]
  protein stability index: 0.4106 ± 0.003

## FVFAMSECIVLS
[1]
  protein stability index: 0.308 ± 0.0053
[2]; [3]
  protein stability index: 0.269 ± 0.014
[2]; [4]
  protein stability index: 0.318 ± 0.0043
[2]; [5]
  protein stability index: 0.205 ± 0.025
[2]; [6]
  protein stability index: 0.393 ± 0.0046
[2]; [7]
  protein stability index: 0.269 ± 0.0044
[2]; [8]
  protein stability index: 0.214 ± 0.022
[2]; [9]
  protein stability index: 0.364 ± 0.00049

## SVFWCFHVLFWS
[1]
  protein stability index: 0.39 ± 0.0011
[2]; [3]
  protein stability index: 0.425 ± 0.039
[2]; [4]
  protein stability index: 0.4971 ± 0.0027
[2]; [5]
  protein stability index: 0.395 ± 0.025
[2]; [6]
  protein stability index: 0.5448 ± 0.0013
[2]; [7]
  protein stability index: 0.327 ± 0.011
[2]; [8]
  protein stability index: 0.345 ± 0.022
[2]; [9]
  protein stability index: 0.4926 ± 0.0049

## PLTSPLLFPVFA
[1]
  protein stability index: 0.376 ± 0.015
[2]; [3]
  protein stability index: 0.272 ± 0.044
[2]; [4]
  protein stability index: 0.338 ± 0.029
[2]; [5]
  protein stability index: 0.269 ± 0.024
[2]; [6]
  protein stability index: 0.376 ± 0.0081
[2]; [7]
  protein stability index: 0.219 ± 0.011
[2]; [8]
  protein stability index: 0.267 ± 0.017
[2]; [9]
  protein stability index: 0.381 ± 0.033

## GFFLLSFLFFVR
[1]
  protein stability index: 0.224 ± 0.032
[2]; [3]
  protein stability index: 0.148 ± 0.0056
[2]; [4]
  protein stability index: 0.181 ± 0.037
[2]; [5]
  protein stability index: 0.212 ± 0.023
[2]; [6]
  protein stability index: 0.393 ± 0.034
[2]; [7]
  protein stability index: 0.234 ± 0.02
[2]; [8]
  protein stability index: 0.195 ± 0.021
[2]; [9]
  protein stability index: 0.311 ± 0.007

## LVLVVFCPLWFW
[1]
  protein stability index: 0.43567 ± 0.00031
[2]; [3]
  protein stability index: 0.483 ± 0.035
[2]; [4]
  protein stability index: 0.581 ± 0.024
[2]; [5]
  protein stability index: 0.401 ± 0.037
[2]; [6]
  protein stability index: 0.5794 ± 0.0036
[2]; [7]
  protein stability index: 0.4422 ± 0.00092
[2]; [8]
  protein stability index: 0.388 ± 0.0094
[2]; [9]
  protein stability index: 0.56 ± 0.024

## FVVVVVWVSRGL
[2]; [3]
  protein stability index: 0.174 ± 0.0059
[2]; [4]
  protein stability index: 0.399 ± 0.05
[2]; [5]
  protein stability index: 0.214 ± 0.036
[2]; [6]
  protein stability index: 0.423 ± 0.008
[2]; [7]
  protein stability index: 0.172 ± 0.029
[2]; [8]
  protein stability index: 0.196 ± 0.048
[2]; [9]
  protein stability index: 0.383 ± 0.023

## FSQGFRSPSECL
[2]; [3]
  protein stability index: 0.712 ± 0.03
[2]; [4]
  protein stability index: 0.764 ± 0.014
[2]; [5]
  protein stability index: 0.63 ± 0.016
[2]; [6]
  protein stability index: 0.765 ± 0.036
[2]; [7]
  protein stability index: 0.647 ± 0.011
[2]; [8]
  protein stability index: 0.655 ± 0.023
[2]; [9]
  protein stability index: 0.7608 ± 0.0072

## WVFYAVRWRTWN
[2]; [3]
  protein stability index: 0.254 ± 0.015
[2]; [4]
  protein stability index: 0.44 ± 0.0092
[2]; [5]
  protein stability index: 0.311 ± 0.037
[2]; [6]
  protein stability index: 0.54 ± 0.017
[2]; [7]
  protein stability index: 0.0632 ± 0.0063
[2]; [8]
  protein stability index: 0.066 ± 0.018
[2]; [9]
  protein stability index: 0.061 ± 0.0063

## RWCLVWGGVWGV
[2]; [3]
  protein stability index: 0.593 ± 0.03
[2]; [4]
  protein stability index: 0.68 ± 0.025
[2]; [5]
  protein stability index: 0.494 ± 0.029
[2]; [6]
  protein stability index: 0.674 ± 0.02
[2]; [7]
  protein stability index: 0.486 ± 0.013
[2]; [8]
  protein stability index: 0.5 ± 0.017
[2]; [9]
  protein stability index: 0.645 ± 0.011

## APGLLPPCLLVV
[2]; [3]
  protein stability index: 0.374 ± 0.033
[2]; [4]
  protein stability index: 0.387 ± 0.013
[2]; [5]
  protein stability index: 0.307 ± 0.045
[2]; [6]
  protein stability index: 0.458 ± 0.014
[2]; [7]
  protein stability index: 0.263 ± 0.0047
[2]; [8]
  protein stability index: 0.3 ± 0.02
[2]; [9]
  protein stability index: 0.389 ± 0.0066
